Data from patent publication US20200256849A1.

Columns and labels:
MART1 comPACT [1] = target: MART1 comPACT (UniProt P61769); assay: dual staining with tetramer, trimer+DNA, dextramer and dextramer+DNA, FACS
MART1 comPACT [2] = target: MART1 comPACT (UniProt P61769); assay: PE/APC comPACT tetramer dual staining, FACS
MART1 comPACT [3] = target: MART1 comPACT (UniProt P61769); assay: replicate of PE/APC comPACT tetramer dual staining, FACS

Chain of UniProt P61769 (P61769 21-119): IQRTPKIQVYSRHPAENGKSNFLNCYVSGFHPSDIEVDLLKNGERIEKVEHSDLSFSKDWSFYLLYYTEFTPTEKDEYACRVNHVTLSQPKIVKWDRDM

Question: What does the source list for TCR against a MART1 antigen (F5)?
Answer: % of gene edited cells stained (MART1 comPACT [1]): > 98%; tetramer staining (% of T cells) (MART1 comPACT [2]): > 99%; tetramer staining (% of T cells) (MART1 comPACT [3]): > 99%
